Assay: soluble on expression in E. coli; label from the status in PepcDB or PDB records

Row | Sequence | soluble on expression in E. coli
1 | MGSDKIHHHHHHMNVLYVTVDALRADHVTPELMPNVSGFVDRSIEYERCYANGPGTPWSFPALLGSQYSGANDGVGIPGEDDSRPTLAEVLRDEGYETAGFTDNHFASSDYNYDRGMTTMFDAGATSSEKRLKQAVRKRLDHDGTLYQMLLRGHHLIDDLLVKIQGRDTRFTRAETLIDSLVDWIDERNDQWFAWLHPMDTHAPYEAPDDYQEQFLDEPIPRRRSQKLARKATHHPDELSDDEWELQQQLYKAECSYLDDQIGRLLDSFPEPERENTLLVFTADHGEMHGEHGLGGHPQQFWEEVIHVPCAISAPGFEATTVNEQAALIDIPPTILDAVGIDAPEYWDGMSVLPDEGTVQEREYVFVDVESELNRNHAGVRRSDNWKLMRHDDEGELLLDLDTNPEEDPEQTRLNDAPEAYRALTDSLDNHLDEMERRRSGETSGIEDEELIEDHLRELGYLE | not soluble
2 | MGHHHHHHSHMSHTQQQTASSTETSTVTVPPSREQNLVLHLSPNPAQPSTSERRHVVWATETVDNEGMGKKKSKCCCIYKKPKNWQDSSSDSDSDCETGHCRGHVEHKKNEEPKSSN | soluble
3 | SHMEIVPDTSVVIDGRVSDQVKADADPDTDVDGMGFAGATVVVPEAVVGELEAQANDGRETGWEGLEELQTLVDLAEEGTIDVEYVGRRPDAIEKREAGEGQIDALIRDIAGDRDATLVTSDDVQAEVARAKGLAVEFVDPVKRTVDRLQIENFFDEG | not soluble
4 | MSKIAIIVDSSSYIPKDQLKKHHIYVIDNPIIFGETIYHEFNWPVNADFYQQMATTPIQPTTSQPAPGDFEAAFQAAKDDGYKQALVITLSSGFSGTFLNTSAIASSHSDIDIHVWDSRIACLGAGNQALLAAYLAEKGIGIDEILSKLQILRSRTGVFFVVDSISHLQRTGRLSGGQALVAGLLNIKPILNINTNKQGKIDAVAKTRKMSGAWRYIEKHFAKIADNYQRAGWPMRVSILDADNPELADAWLKRAEKRWPEIIFERGIIGPLVGVHIGGKAVGLIWAEDYKRLED | not soluble
5 | SRDSAFRERLLRLAPKYPLVLAVSGGGDSVALALLVKEAGRQAVVAHLDHGLRPESPLDQAFVRALAERLGFPFFTERVEVARIAQARGENLEAVAREVRYAFLHRVAREVGARAILTAHTLDDQAETVLLQLLQGTARATGIREREGIVVRPLLAHTREELRAYLRARGEAWREDPTNQDPALDRNFLRLFVFPLLEERFPAAKRALARFAEARAEEEGVLERQAEARLLPDPRFFVPAFRAAPLLEAPLAVRRRALRRLLEKLGLRPEARLVLLLEEALRGRPQTLPGGVLARRKGGTLFLLPPRPRLPLPPGFRRPAPGDYLERPSGRKRLVDFLAEKGVPRELKPLWPVRAEGNRVVEVLGLYPPPPEEAHMAEALAEAASAFREGEVPVGAVLVLPGRVLRAHNRVEGLRDPTAHAEMLLLREAGPEARGGRLYVTLEPCLMCHHALAQAGVEVVYGAENLKEGALTRFGLPTRARGGVRERECAKLLRDFFARLREGCRSG | soluble
6 | DDAENIEYKVSISGTSVELTCPLDSDENLKWEKNGQELPQKHDKHLVLQDFSEVEDSGYYVCYTPASNKNTYLYLKARVGSADDAKKDAAKKDDAKKDDAKKDGSQTNKAKRALEVLEAEDKVILKCNSSITLLQGTAGQEVSDNKTLNLGKRIEDPRGMYQCGENAKSFTLQVYYRM | soluble
7 | MNIRERKRKHLEACLEGEVAYQKTTTGLEGFRLRYQALAGLALSEVDLTTPFLGKTLKAPFLIGAMTGGEENGERINLALAEAAEALGVGMMLGSGRILLERPEALRSFRVRKVAPKALLIANLGLAQLRRYGRDDLLRLVEMLEADALAFHVNPLQEAVQRGDTDFRGLVERLAELLPLPFPVMVKEVGHGLSREAALALRDLPLAAVDVAGAGGTSWARVEEWVRFGEVRHPELCEIGIPTARAILEVREVLPHLPLVASGGVYTGTDGAKALALGADLLAVARPLLRPALEGAERVAAWIGDYLEELRTALFAIGARNPKEARGRVERV | soluble
8 | MYPIKIIYVYKAMLDKVIDKAGGVLTEAYGDVVKPVLKPIGEVLGFLPRSIKCLLQGWEKWIINGEESIRLTSEAIRKKIEATPAERLTEPEPYVVVPAIQQLGYSHSSEELRELYANLIVSSMDVEKKGLVHPAFVDILKKLTPDEAKIIQYFKGRDFIEYLDLRAYIKEEEGGGFRTIADHKTLLSDEVNFFMPDNELAYLQNLVCLGILKDCEGTFTVIEDNYKLIENKLGLESLRNQYVPEQFSSIRSEKSFYQVTDFGRNFINTVTE | not soluble
9 | MGLTTMGLTTMGLTTKGLTTMGLTTKGLTTKGLTTMGLTTKGFTTKGLTTMGVTTKGLTTMGLTTKGLTTKGLTTKGFTTKGLTTMGLATMGLTTKGLTTMGLTTMGLTTKGLTTKGLTTKGLTTKGLTTKGLTTMGLTTKGFTTKGLTTMGLTTMGLATMGLTTKGLTTMGLTTKGFITKGLTTMGLATMGLTTMGLTTKGLTTKGLTTKGLTTMGLTTKGFITKGLTTMGLATMGLTTMGLTTKGLTTMGLTTMGLTTKGLTTKGLTTKGLTTKGLTTKGLTTMGLTTKGFTTKGLTTMGLATMGLATMGLTTMGLTTKGLTTKGLTTKGLTTKGLTTMGLTTKGFTTKGLTTMGLTTMGLTTKGLTTKGLTTKGLTTKGLTTMGLTTKGFTTKGLTTMGLATMGLTTKGLTTMGLTTKGFITKGLTTMGLATMGLTTMGLTTKGLTTKGLTTKGLTTMGLTTMGLTTMGLTTMGLTTMGLTTMGLTTMGLTTKGLTSQGVMDQAGVNRVEGEPINRLRTCEGKGNGRGDMQGVGNLGKALRGREDSLIVSSETRGFPRMGLWPGFPPIEYQGQVQSLE | not soluble
10 | MAHHHHHHMRKKLVLPLSIGRGFSSWDDGSDGHEWKSRALAEKRLLALTYLGDVNKRVQIHDAIRLRGEVNKQAIRACELPTFFQTKETNEAENLQEIDYHSLLSMIEGEFEVDTLAHIAPSDANFLKTEFLQCDDSAEVKLLGQWSNLRRDTADYNNYASIPDGERNAWSAWYLRNVRPGKTEND | not soluble
11 | MLKGIPKIIPPELLKVLCEMGHGDQLVIADGNFPAESIGKNAIVVRMDGHGGGEILKAILTVFPLDTYVDKPATLMEKVPGDTVATPIWDVYAGLIKEHDERGADAIGSLERFAFYEQAKNAYCVIASGESAQYANLILQKGVVFNAE | soluble
12 | GSSGGPNVPELILQLLQLEPEEDQVRARIVGCLQEPAKSRSDQPAPFSLLCRMADQTFISIVDWARRCMVFKELEVADQMTLLQNSWSELLVLDHIYRQVQYGKEDSILLVTGQEVELSTVAVQAGSLLHSLVLRAQELVLQLHALQLDRQEFVCLKFLILFSLDVKFLNNHSLVKDAQEKANAALLDYTLSHYPHSGDKFQQLLLSLVEVRALSMQAKEYLYHKHLGNEMPRNNLLIEMLQAKQT | soluble
13 | MKEIKFLHIADLHLDSPFIGLSTLPQPLFSAVQESTFQSLERIITIAIKEAVEFVLIAGDIYDSEDQSVRAQARFSKEMKRLEQAGIKAFIIHGNHDFIEKHKEKLQLPGNVHVFSEQVEMAAMETKNGAIVHIYGFSYGERHIRASRVNEYNKQGEADFHIGLLHGSELSSSEDHDVYAPFRIQEITKKGFDYWALGHIHKRQLLAESPSVYYPGNIQGRNRKESGEKGASIVTLSASNTTIDFIATSPIIWEEVIITLPENSEINTFYREITKLLATYQGQSNSFFLHVIVQMANKQKINTTDWLQMLQEETDLTGSTFIWVHKLTIELTNQSDLKNWHEQHLASKEITQAFEKLQDESAFYQTVEALYFESGVSRYLDDLSEEDRQLMLDAALTELGTVLKEVEGDEK | not soluble
14 | MAHHHHHHMTEKENGNKDKRRKEKHRKHHRDRRESCNGVVNSSAAKTRPETAVAIEGADEEVENWDENRTRVDQLCQTYPNNMCNDCNNAGTRWASVNHGVFLCIRCSGIHRSLGVHVSKVKSANMDKWSAAEVHLMELIGNQRAKLLYEAHLPKDMKPMTFAESDATLQTFIQRKYQEKAFSVEAVDEKLRQYHKEARYGKKPKRNSSASRKKKANDGANDKAERSLKGEDTIKALYGSNAEVISKMSKRTGPIRGTFGVVNVGPEAYDERRKTLLEQFGFS | not soluble
15 | MYDVAIIGAGVIGCSIFRELTKYDLRVVVLEKEKDVSMGTSKANSAIVHAGYDPEEGTLMAKYNVKGNEMFEELCKELSVPFKRNGSLVLAFDKEDMFKVKHLYENGSKLGVKGLKILNRDEVLKMEPNLNDKIEGALYAPTGGIVGPFEYTIALAENGVTNGGKIKLKKEVVSIKKRDVFKIGTEDGETIEAKFVINAAGVYADKIHNLVCKESFKISPRSGEYFVMDKSQGNVVKHTIFQCPSKLGKGVLITPTVHGNLLVGPDARDVEDKEDVGTVFEGLDYVKEASMRSTKEVNFRESIRNFAGLRANPDTGDFIVEENDEVKGFIDVAGMKSPGLSSAPAIAVDVVNILSSAGCSLKK | not soluble
16 | MEVDGASDDEQEQIIRKLVKKPEFLSDEEDDSVEDQVVWECDVVVCNSTPNTEMFSVSYPSSKRDAWDAKRFPIARYKKNVRLLEMRFMTDTQLGSYDKKKAELMYMDGDVPKKGHGIDALRANDEIYEGRAFIHDHPIVNAIGFFKNGEFFIHPLTGAFEMHRSIQGLNKKKKSDGKSGKSDEDSSGEEEDVKPSSAAVRVKFSRPETERQKKRREASALHREKKIASDMWIPMKVHLKDGDPVAEKIDGISQNGLLLDDPEASRMSIRALVNRAIICGVKEELVIESGKEHMLSKQRIDDLPDPNLQLKAHMVKSHVMKTSEMRRLIDPSAMSTDKMIAKLKECASLVQGVWVLDSNLMFKNLAPAHSNTAGKTDLYRAELWRNARDLALCLIDGGHRVTRLTLMTCFKLSERDSDEILSTFGVKCEATRSWRLRVERDAQFLEDPAMKKHVVEQKAKWVQKFNELEKSLQESPAKSPKKK | not soluble
17 | MGSHHHHHHSSGLVPRGSHMTIGIDKISFFVPPYYIDMTALAEARNVDPGKFHIGIGQDQMAVNPISQDIVTFAANAAEAILTKEDKEAIDMVIVGTESSIDESKAAAVVLHRLMGIQPFARSFEIKEACYGATAGLQLAKNHVALHPDKKVLVVAADIAKYGLNSGGEPTQGAGAVAMLVASEPRILALKEDNVMLTQDIYDFWRPTGHPYPMVDGPLSNETYIQSFAQVWDEHKKRTGLDFADYDALAFHIPYTKMGKKALLAKISDQTEAEQERILARYEESIIYSRRVGNLYTGSLYLGLISLLENATTLTAGNQIGLFSYGSGAVAEFFTGELVAGYQNHLQKETHLALLDNRTELSIAEYEAMFAETLDTDIDQTLEDELKYSISAINNTVRSYRN | soluble
18 | MGSDKIHHHHHHMPLVLIRKSDYSYETLKPLIFGMLDRLGGHRMAPGSRVLIKPNLLTPATPRQAILTHPFIVRAAVEYALNQNARPLVADSPAMGSFSKILRDSGIQEALAPLKVDYRPFQDSLKIDIGEPFGSIDIAREVIEADFIINLPKFKTHSQMLLTLGVKNLFGCIVGYRKPEWHMKTGVNRPLFARLLVQLYHRISPAFTILDGILALEGEGPGKRGTPKGGWPAPRQRQRPGPRQDRLPDT | not soluble
19 | MALLDFFLSRKKNTANIAKERLQIIVAERRRSDAEPHYLPQLRKDILEVICKYVQIDPEMVTVQLEQKDGDISILELNVTLPEAEELK | not soluble
20 | MSKQDEVIVVGKFGASYGIRGWLKVVSFTDQPESIFDYKPWLIQVKGEWVEFSVESWKRHKGLVCKLKGLDVREEAQTYTNLEIAVKADALPELSEDEFYWRELFGMEVVTTKGYALGVVDDIFETGSNDVLVVKANLKDAFGKKERLIPFIDEQVIKLIDREAQRIEVDWDPGFLEHHHHHH | soluble

From the DeepSol protein solubility set
